T1: C. thermocellum ScaF Coh (type-II cohesin of anchoring scaffoldin ScaF), expressed on its own (Clostridium thermocellum, UniProt P71143 29-200)
T1 construct: single type-II cohesin of anchoring scaffoldin ScaF of Clostridium thermocellum (the Coh of PDB 2b59 and 2bm3); also called CohScaF; source: E. coli BL21 (DE3), pET28a, purified (IMAC)
T1 sequence (looked up): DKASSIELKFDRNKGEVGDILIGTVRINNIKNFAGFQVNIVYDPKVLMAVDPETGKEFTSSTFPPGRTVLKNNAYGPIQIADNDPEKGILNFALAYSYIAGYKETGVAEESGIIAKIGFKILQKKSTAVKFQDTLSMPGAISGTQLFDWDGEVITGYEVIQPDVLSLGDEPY

B1: C. thermocellum CipB XDoc (X-module and type-II dockerin of CipB), expressed on its own (domain or fragment, Clostridium thermocellum)
chain: NNDSTDKTTVSGYISVDFDYPPESESKIKSGFNVKVAGTELSTKTDEKGYFEISGIPGDMREFTLEISKRNYLKRNVTVNGTGKLVVSTEDNPLILWAGDVERKGVQDNAINMVDVMEISKVFGTRAGDEEYVAELDLNMDGAINLFDIAIVIRHFNALPSRY
notes: CipB (ORF Cthe_1806, 2177 amino acids) of Clostridium thermocellum: X-module and C-terminal type-II dockerin (XDoc); numbers count on: the recombinant XDoc chain (X-module 1-98, Doc 99-164); also called XDocCipB; CipB type-II Doc; source: E. coli Tuner (DE3), pET21a, purified (IMAC)

What was measured:
Assay in all cases: ITC; VP-ITC, 318.15 K; Doc in the cell, Coh injected (28 x 10 uL); single site-binding model; proteins in 50 mM HEPES pH 7.5, 2 mM CaCl2, 0.5 mM TCEP
[1] = target: C. thermocellum CipB XDoc (X-module and type-II dockerin of CipB), expressed on its own (Clostridium thermocellum) (UniProt A3DGE8)
[2] = target: C. thermocellum CipB XDoc F148A (Clostridium thermocellum)
[3] = target: C. thermocellum CipB XDoc I154A (Clostridium thermocellum)
[4] = target: C. thermocellum CipB XDoc M114A (Clostridium thermocellum)
[5] = target: C. thermocellum CipB XDoc M118A (Clostridium thermocellum)
[6] = target: C. thermocellum CipB XDoc S121A (Clostridium thermocellum)
[7] = target: T1, C. thermocellum ScaF Coh (type-II …); conditions: both partners purified

Row | Ka [1] [M⁻¹] | dH [1] [kJ/mol] | Ka [2] [M⁻¹] | dH [2] [kJ/mol] | stoichiometry N [2] | Ka [3] [M⁻¹] | dH [3] [kJ/mol] | stoichiometry N [3] | dH [4] [kJ/mol] | dH [5] [kJ/mol] | dH [6] [kJ/mol] | stoichiometry N [1] | Ka [4] [M⁻¹] | stoichiometry N [4] | Ka [5] [M⁻¹] | stoichiometry N [5] | Ka [6] [M⁻¹] | stoichiometry N [6] | Ka [7] [M⁻¹] | Molecule
1 | > 1e+09 | -51.8 | 619000 | -36.9 | 1.01 | 1.2e+06 | -40.8 | 1.02 | -43.6 | -36.2 | -43 |  |  |  |  |  |  |  |  | C. thermocellum ScaC2 Coh (type-II cohesin of anchoring scaffoldin ScaC), expressed on its own (domain or fragment)
2 | 1.21e+07 | -34.6 |  |  |  | 1.08e+07 | -72.2 | 1.03 | -54.4 | -107 | -29 | 1 | 7.17e+06 | 1.01 | 6.96e+06 | 0.99 | 9.16e+06 | 1.01 |  | C. thermocellum ScaE6 Coh (type-II cohesin of scaffoldin ScaE) (domain or fragment)
3 |  |  |  |  |  |  |  |  |  |  |  |  |  |  |  |  |  |  | > 1e+09 | B1
